From publication PMC5549631

Legend:
[1] = target: recombinant nucleosome labelled with Oregon Green 488 on histone H4 Q27C (Xenopus) (UniProt P62799); assay: other fluorescence titration
[2] = target: acidic patch mutant nucleosome (H2A E61A, E64A, D90, E92A) (Xenopus) (UniProt P06897); assay: other fluorescence titration
[3] = target: acidic patch mutant nucleosome (H2A E61A, E64A, D90, E92A) (Xenopus) (UniProt P06897)

| Substance | Kd [1] [nM] | Kd [2] [nM] | histone methyltransferase activity on acidic patch mutant nucleosomes [3] [%] | fold decrease of nucleosome binding affinity against Set8(153-352) [1] [fold] |
| --- | --- | --- | --- | --- |
| Set8(153-352) R188A, R189A (from UniProt Q9NQR1-2 153-352) (domain or fragment) | 2500 | – | – | – |
| Set8(153-352) (from UniProt Q9NQR1-2 153-352) (domain or fragment) | 7.9 | 1300 | 5.4 | – |
| full length Set8 (from UniProt Q9NQR1-2 1-352) (enzyme) | 5.3 | 60 | – | – |
| Set8(175-352) (from UniProt Q9NQR1-2 175-352) (domain or fragment) | 1800 | – | – | – |
| Set8(153-352) R179A, K180A (from UniProt Q9NQR1-2 153-352) (domain or fragment) | – | – | – | 2.5 |
| Set8(153-352) H347F (from UniProt Q9NQR1-2 153-352) (domain or fragment) | 4.5 | – | – | – |
